System: T1, purified murine β-catenin protein
T1 sequence: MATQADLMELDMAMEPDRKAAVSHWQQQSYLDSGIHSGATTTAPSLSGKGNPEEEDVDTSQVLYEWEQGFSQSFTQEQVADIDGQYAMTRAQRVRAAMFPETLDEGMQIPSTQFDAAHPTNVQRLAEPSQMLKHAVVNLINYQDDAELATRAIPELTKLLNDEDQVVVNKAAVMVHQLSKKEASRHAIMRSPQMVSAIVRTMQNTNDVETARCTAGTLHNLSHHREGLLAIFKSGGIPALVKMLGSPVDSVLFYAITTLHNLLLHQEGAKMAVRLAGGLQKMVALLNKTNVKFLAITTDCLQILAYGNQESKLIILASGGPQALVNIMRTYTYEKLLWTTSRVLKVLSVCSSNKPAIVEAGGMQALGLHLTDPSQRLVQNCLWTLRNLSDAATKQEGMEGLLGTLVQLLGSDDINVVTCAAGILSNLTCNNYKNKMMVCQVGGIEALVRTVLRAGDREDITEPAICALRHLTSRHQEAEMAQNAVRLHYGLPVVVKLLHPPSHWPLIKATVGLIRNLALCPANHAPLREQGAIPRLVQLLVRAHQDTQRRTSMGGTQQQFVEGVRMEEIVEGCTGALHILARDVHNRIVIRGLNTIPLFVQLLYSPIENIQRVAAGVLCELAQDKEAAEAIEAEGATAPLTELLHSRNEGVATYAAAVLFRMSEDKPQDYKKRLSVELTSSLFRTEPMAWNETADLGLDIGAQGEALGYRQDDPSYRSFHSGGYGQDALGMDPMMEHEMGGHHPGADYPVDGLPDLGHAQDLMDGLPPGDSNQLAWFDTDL

Akt (Cell Signaling)
in vitro phosphorylation; collision induced dissociation spectrum of the peptide spanning Ser^552 (loss of the 98 Da H3PO4 group): indicating that this peptide (shown in FIG. 5C) is phosphorylated by Akt

Reference: patent US20080248026
